From IntAct's records for PubMed 21240188

B1: Fanconi anemia group J protein (Homo sapiens), Q9BX63 (parent)
chain: MSSMWSEYTIGGVKIYFPYKAYPSQLAMMNSILRGLNSKQHCLLESPTGSGKSLALLCSALAWQQSLSGKPADEGVSEKAEVQLSCCCACHSKDFTNNDMNQGTSRHFNYPSTPPSERNGTSSTCQDSPEKTTLAAKLSAKKQASIYRDENDDFQVEKKRIRPLETTQQIRKRHCFGTEVHNLDAKVDSGKTVKLNSPLEKINSFSPQKPPGHCSRCCCSTKQGNSQESSNTIKKDHTGKSKIPKIYFGTRTHKQIAQITRELRRTAYSGVPMTILSSRDHTCVHPEVVGNFNRNEKCMELLDGKNGKSCYFYHGVHKISDQHTLQTFQGMCKAWDIEELVSLGKKLKACPYYTARELIQDADIIFCPYNYLLDAQIRESMDLNLKEQVVILDEAHNIEDCARESASYSVTEVQLRFARDELDSMVNNNIRKKDHEPLRAVCCSLINWLEANAEYLVERDYESACKIWSGNEMLLTLHKMGITTATFPILQGHFSAVLQKEEKISPIYGKEEAREVPVISASTQIMLKGLFMVLDYLFRQNSRFADDYKIAIQQTYSWTNQIDISDKNGLLVLPKNKKRSRQKTAVHVLNFWCLNPAVAFSDINGKVQTIVLTSGTLSPMKSFSSELGVTFTIQLEANHIIKNSQVWVGTIGSGPKGRNLCATFQNTETFEFQDEVGALLLSVCQTVSQGILCFLPSYKLLEKLKERWLSTGLWHNLELVKTVIVEPQGGEKTNFDELLQVYYDAIKYKGEKDGALLVAVCRGKVSEGLDFSDDNARAVITIGIPFPNVKDLQVELKRQYNDHHSKLRGLLPGRQWYEIQAYRALNQALGRCIRHRNDWGALILVDDRFRNNPSRYISGLSKWVRQQIQHHSTFESALESLAEFSKKHQKVLNVSIKDRTNIQDNESTLEVTSLKYSTSPYLLEAASHLSPENFVEDEAKICVQELQCPKIITKNSPLPSSIISRKEKNDPVFLEEAGKAEKIVISRSTSPTFNKQTKRVSWSSFNSLGQYFTGKIPKATPELGSSENSASSPPRFKTEKMESKTVLPFTDKCESSNLTVNTSFGSCPQSETIISSLKIDATLTRKNHSEHPLCSEEALDPDIELSLVSEEDKQSTSNRDFETEAEDESIYFTPELYDPEDTDEEKNDLAETDRGNRLANNSDCILAKDLFEIRTIKEVDSAREVKAEDCIDTKLNGILHIEESKIDDIDGNVKTTWINELELGKTHEIEIKNFKPSPSKNKGMFPGFK

Variants of: B1
Details: with brca1_human BRCA1, P38398
brca1_human BRCA1, P38398, sequence (P38398 whole entry, looked up): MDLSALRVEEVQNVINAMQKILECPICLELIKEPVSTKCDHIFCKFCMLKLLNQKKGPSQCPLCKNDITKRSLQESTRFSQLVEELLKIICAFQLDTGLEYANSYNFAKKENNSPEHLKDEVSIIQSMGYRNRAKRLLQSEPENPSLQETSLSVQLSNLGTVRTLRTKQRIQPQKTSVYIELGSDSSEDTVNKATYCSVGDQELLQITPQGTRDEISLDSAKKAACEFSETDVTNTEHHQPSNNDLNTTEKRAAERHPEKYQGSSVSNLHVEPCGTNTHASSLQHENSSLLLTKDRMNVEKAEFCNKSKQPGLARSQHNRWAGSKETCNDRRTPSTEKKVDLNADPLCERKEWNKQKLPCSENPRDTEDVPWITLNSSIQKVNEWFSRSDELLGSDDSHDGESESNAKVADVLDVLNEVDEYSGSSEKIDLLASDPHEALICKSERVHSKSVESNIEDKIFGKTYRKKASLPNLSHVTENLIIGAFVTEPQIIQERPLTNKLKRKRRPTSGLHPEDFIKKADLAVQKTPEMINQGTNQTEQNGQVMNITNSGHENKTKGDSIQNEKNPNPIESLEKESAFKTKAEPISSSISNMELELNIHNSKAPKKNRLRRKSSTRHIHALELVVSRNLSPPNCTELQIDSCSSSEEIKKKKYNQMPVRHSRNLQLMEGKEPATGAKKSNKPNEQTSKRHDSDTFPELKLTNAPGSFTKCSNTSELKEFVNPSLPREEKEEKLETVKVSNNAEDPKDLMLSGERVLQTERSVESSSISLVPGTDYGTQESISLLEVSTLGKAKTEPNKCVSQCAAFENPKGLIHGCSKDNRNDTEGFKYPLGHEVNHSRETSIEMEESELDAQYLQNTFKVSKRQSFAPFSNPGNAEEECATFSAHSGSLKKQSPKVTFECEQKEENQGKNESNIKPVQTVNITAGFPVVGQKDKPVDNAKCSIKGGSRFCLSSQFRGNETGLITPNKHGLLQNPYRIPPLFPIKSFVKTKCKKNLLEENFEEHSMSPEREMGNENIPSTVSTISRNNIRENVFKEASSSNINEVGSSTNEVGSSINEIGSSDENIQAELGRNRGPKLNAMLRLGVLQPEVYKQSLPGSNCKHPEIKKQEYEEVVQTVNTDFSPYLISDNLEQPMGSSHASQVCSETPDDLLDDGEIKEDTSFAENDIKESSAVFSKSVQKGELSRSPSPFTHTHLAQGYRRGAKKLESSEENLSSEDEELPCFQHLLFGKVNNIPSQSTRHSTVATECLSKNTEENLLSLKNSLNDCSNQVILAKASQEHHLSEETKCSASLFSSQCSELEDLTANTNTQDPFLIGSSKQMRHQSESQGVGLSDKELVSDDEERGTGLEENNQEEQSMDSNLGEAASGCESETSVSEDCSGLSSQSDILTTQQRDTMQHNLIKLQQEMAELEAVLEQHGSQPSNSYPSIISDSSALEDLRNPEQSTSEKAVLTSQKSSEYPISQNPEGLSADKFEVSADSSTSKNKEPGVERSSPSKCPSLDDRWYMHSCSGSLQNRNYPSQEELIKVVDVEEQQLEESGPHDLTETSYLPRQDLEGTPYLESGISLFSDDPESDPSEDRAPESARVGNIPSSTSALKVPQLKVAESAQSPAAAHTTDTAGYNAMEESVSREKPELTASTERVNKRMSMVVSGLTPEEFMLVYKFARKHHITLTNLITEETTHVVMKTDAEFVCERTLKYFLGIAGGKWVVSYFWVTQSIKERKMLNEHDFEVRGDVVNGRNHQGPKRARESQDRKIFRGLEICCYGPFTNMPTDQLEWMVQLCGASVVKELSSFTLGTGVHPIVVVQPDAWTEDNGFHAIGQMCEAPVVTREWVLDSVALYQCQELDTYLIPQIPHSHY

Variant | effect of a mutation on the interaction
S990A | disrupting interaction
